A word on the Kd: it is the constant that tells how readily two partners part at equilibrium.

Series [1] addresses T1, AfAgo (Archaeoglobus fulgidus DSM 4304, UniProt O28951 1-427).
T1 sequence: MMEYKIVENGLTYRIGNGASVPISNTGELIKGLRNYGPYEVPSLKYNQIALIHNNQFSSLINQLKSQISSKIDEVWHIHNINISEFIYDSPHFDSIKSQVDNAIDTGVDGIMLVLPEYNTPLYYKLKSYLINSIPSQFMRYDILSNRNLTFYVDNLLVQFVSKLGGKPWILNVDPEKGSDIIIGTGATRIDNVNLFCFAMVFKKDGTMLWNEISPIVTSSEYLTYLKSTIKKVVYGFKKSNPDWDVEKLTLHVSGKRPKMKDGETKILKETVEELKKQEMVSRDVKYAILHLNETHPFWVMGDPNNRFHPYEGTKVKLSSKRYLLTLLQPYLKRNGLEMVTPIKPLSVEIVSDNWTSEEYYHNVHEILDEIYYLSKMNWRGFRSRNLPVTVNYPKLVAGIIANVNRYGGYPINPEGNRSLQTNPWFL
Briefly: EMSA; EMSA: 40 mM Tris-acetate pH 8.4 (25 C), 1 mM EDTA, 100 mM K-acetate, 0.1 mg/ml BSA, 1 mM DTT, 10% glycerol; 5 nM NA (1 nM 32P + 4 nM cold); 10 min at 25 C. Conditions: protein: recombinant; tags: N-terminal His (HisTrap; construct name NHis-Af1318); label: 5'-32P. In general terms: A gel shift assay detects complexes by their altered migration in electrophoresis.

In series [2] the target is T1, AfAgo. Briefly: EMSA; pre-formed duplex; EMSA: 40 mM Tris-acetate pH 8.4 (25 C), 1 mM EDTA, 100 mM K-acetate, 0.1 mg/ml BSA, 1 mM DTT, 10% glycerol; 5 nM NA (1 nM 32P + 4 nM cold); 10 min at 25 C. Conditions: protein: recombinant; tags: N-terminal His (HisTrap; construct name NHis-Af1318); label: 5'-32P; blunt.
Series [3] has as its target T1, AfAgo. Briefly: EMSA; AfAgo pre-loaded with gRNA (1:2), target titrated; no heparin; EMSA: 40 mM Tris-acetate pH 8.4 (25 C), 1 mM EDTA, 100 mM K-acetate, 0.1 mg/ml BSA, 1 mM DTT, 10% glycerol; 5 nM NA (1 nM 32P + 4 nM cold); 10 min at 25 C. Particulars: protein: recombinant; tags: N-terminal His (HisTrap; construct name NHis-Af1318); label: 5'-32P on target; guide nt 1-8 complementary to target 3' end; rest largely unpaired.

Series [4] addresses T1, AfAgo. Briefly: X-ray crystallography; Mg2+; EMSA: 40 mM Tris-acetate pH 8.4 (25 C), 1 mM EDTA, 100 mM K-acetate, 0.1 mg/ml BSA, 1 mM DTT, 10% glycerol; 5 nM NA (1 nM 32P + 4 nM cold); 10 min at 25 C. Particulars: protein: recombinant; tags: N-terminal His (HisTrap; construct name NHis-Af1318); blunt, self-complementary, 2 strand copies.
The target of series [5] is T1, AfAgo. The series can be described thus: X-ray crystallography; 5 mM Mg2+ in complex preparation; EMSA: 40 mM Tris-acetate pH 8.4 (25 C), 1 mM EDTA, 100 mM K-acetate, 0.1 mg/ml BSA, 1 mM DTT, 10% glycerol; 5 nM NA (1 nM 32P + 4 nM cold); 10 min at 25 C. Conditions: protein: recombinant; tags: N-terminal His (HisTrap; construct name NHis-Af1318); blunt, self-complementary, 2 strand copies.

Series [6] concerns the molecule itself. The series can be described thus: crystal structure; AfAgo-DNA oligoduplex complexes, 90-120 uM (as monomer), crystals grown at 4-8 °C; P1 crystals (5'P-ATC DNA) hold two DNA-bound subunits per asymmetric unit; in the P22(1)2(1) crystals (5'P-ATT DNA) the dimer is formed by a crystallographic symmetry operator.

B1: MZ-1707 AGU ssRNA (ssRNA)
RNA: AGUGUACACGGCCGACU
modifications: 5'-phosphate
On to B1, for which, in the series with AfAgo [1], the Kd turned out to be 0.084 ± 0.0029 µM.

B2: MZ-1447/MZ-1455 dsDNA (dsDNA)
DNA 1: ATTGTACACGGCCGAAT
DNA 2: ATTCGGCCGTGTACAAT
modifications: 5'-phosphate
Turning to B2, the Kd with AfAgo [2] worked out at 0.037 ± 0.017 µM.

B3: gRNA MZ-1480 + target DNA MZ-1560 (8 nt) (DNA:RNA)
RNA: AUUGUACACGGCCGAAU
DNA: CGGAATATATGTACAAT
modifications: 5'-phosphate
Consider B3, for which the Kd with AfAgo [3] stood at 0.0075 ± 0.0004 µM.

B4: MZ-1480 5'P-AUU ssRNA (ssRNA)
RNA: AUUGUACACGGCCGAAU
modifications: 5'-phosphate
On to B4, for which the Kd in the series with AfAgo [1] came to 0.0038 ± 0.0001 µM.

B5: MZ-1288 5'-ATT oligoduplex (dsDNA)
DNA 1: ATTGTGGCCACAAT
DNA 2: ATTGTGGCCACAAT
modifications: 5'-phosphate
In the case of B5, the binding result in the series with AfAgo [4] is “binds”.

B6: MZ-1289 5'-ATT oligoduplex (dsDNA)
DNA 1: ATTGTACGTACAAT
DNA 2: ATTGTACGTACAAT
modifications: 5'-phosphate
In the case of B6, the binding result in the series with AfAgo [5] was “binds”.

B7: MZ-1699 UUU ssRNA (ssRNA)
RNA: UUUGUACACGGCCGAAA
modifications: 5'-phosphate
As to B7, the Kd in the series with AfAgo [1] was 0.015 ± 0.0028 µM.

B8: MZ-1708 CUU ssRNA (ssRNA)
RNA: CUUGUACACGGCCGAAG
modifications: 5'-phosphate
Regarding B8, in the series with AfAgo [1], the Kd amounted to 0.028 ± 0.0027 µM.

B9: MZ-1480/MZ-1481 dsRNA (dsRNA)
RNA 1: AUUGUACACGGCCGAAU
RNA 2: AUUCGGCCGUGUACAAU
modifications: 5'-phosphate
With B9, the Kd in the series with AfAgo [2] came to 0.015 ± 0.0009 µM.

B10: MZ-952 5'-ATC oligoduplex (dsDNA)
DNA 1: ATCGTGGCCACGAT
DNA 2: ATCGTGGCCACGAT
modifications: 5'-phosphate
As to B10, in the series with AfAgo [5], the binding result is listed as “binds”.

B11: MZ-1447 ATT ssDNA (ssDNA)
DNA: ATTGTACACGGCCGAAT
modifications: 5'-phosphate
Regarding B11, the Kd in the series with AfAgo [1] was 0.236 ± 0.035 µM.

B12: MZ-1698 GUU ssRNA (ssRNA)
RNA: GUUGUACACGGCCGAAC
modifications: 5'-phosphate
Take B12: the equilibrium dissociation constant (Kd) with AfAgo [1] was 0.042 ± 0.0021 µM.

B13: gRNA MZ-1480 + target RNA MZ-1556 (8 nt) (dsRNA)
RNA 1: AUUGUACACGGCCGAAU
RNA 2: CGGAAUAUAUGUACAAU
modifications: 5'-phosphate
B13: the Kd with AfAgo [3] came to 0.033 ± 0.0042 µM.

B14: MZ-1706 AUC ssRNA (ssRNA)
RNA: AUCGUACACGGCCGGAU
modifications: 5'-phosphate
With B14, the Kd in the series with AfAgo [1] is 0.016 ± 0.0021 µM.

B15: Archaeoglobus fulgidus Argonaute protein (AfAgo) (natural protein, Archaeoglobus fulgidus DSM 4304)
chain: MMEYKIVENGLTYRIGNGASVPISNTGELIKGLRNYGPYEVPSLKYNQIALIHNNQFSSLINQLKSQISSKIDEVWHIHNINISEFIYDSPHFDSIKSQVDNAIDTGVDGIMLVLPEYNTPLYYKLKSYLINSIPSQFMRYDILSNRNLTFYVDNLLVQFVSKLGGKPWILNVDPEKGSDIIIGTGATRIDNVNLFCFAMVFKKDGTMLWNEISPIVTSSEYLTYLKSTIKKVVYGFKKSNPDWDVEKLTLHVSGKRPKMKDGETKILKETVEELKKQEMVSRDVKYAILHLNETHPFWVMGDPNNRFHPYEGTKVKLSSKRYLLTLLQPYLKRNGLEMVTPIKPLSVEIVSDNWTSEEYYHNVHEILDEIYYLSKMNWRGFRSRNLPVTVNYPKLVAGIIANVNRYGGYPINPEGNRSLQTNPWFL
notes: AfAgo, hypothetical protein from Archaeoglobus fulgidus DSM 4304, GenBank NP_070147.1, cloned in pETDuet-1; also called AfPIWI; Af1318; source: E. coli, purified (Ni2+ HiTrap chelating, RNase A/T1 treatment, HiTrap Heparin, Superdex 200)
For B15, the binding result in series [6] was “binds”.

B16: MZ-1480/MZ-1455 RNA/DNA heteroduplex (DNA:RNA)
RNA: AUUGUACACGGCCGAAU
DNA: ATTCGGCCGTGTACAAT
modifications: 5'-phosphate
In the case of B16, the Kd in the series with AfAgo [2] amounted to 0.0061 ± 4e-05 µM.

(Values after paper PMC10104839, “Structural basis for sequence-specific recognition of guide and target strands by the Archaeoglobus fulgidus Argonaute protein” (Scientific Reports, 2023).)
